Values quoted from earlier work in article PMC5009806.

Target: amyloid beta (Homo sapiens) (UniProt P05067)
Test: SPR

Kd: 0.6 nM
Substance: Gantenerumab
